Measured values taken from patent publication US20140128569A1 (PANASONIC, published 2014).

Molecular target: T1, polypeptide consisting of the amino acid sequence represented by SEQ ID NO: 01, contained in troponin I … (human)
T1 peptide: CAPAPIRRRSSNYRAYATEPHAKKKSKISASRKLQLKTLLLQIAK
Experiment: phage ELISA; average absorbance relative to example 2-1 (no heat); told of the conditions <=70 C and <=5 min, <=60 C and <=10 min, <=50 C and <=20 min, <=37 C and <=60 min
Protocol: Pursuant to the step (a-8), the ELISA plate was prepared.
A phage binding ratio was calculated from Table 10 on the basis of the following formula (I): […]

B1: A2 antibody-displayed phage (scFv)
scFv: DVVLTQSPLTLSVTIGQPASISCKSSQSLLDSDGKTYLNWLLQRPGQSPKRLIYLVSKLDSGVPDRFTGSGSGTDFTLKISRVEAEDLGVYYCWQGTHFPLTFGAGTKLEIKRGGGGSGGGGSGGGGSQLQLQQSGAELVRSGASVKLSCTASGFNIKDYYMNWVKQRPEQGLEWIGWIDPANGDTAYAPRFQVKATMTADKSSNTAYLQLSSLTSEDTAVYYCNADLPMDQWGQGTSVTVSS
notes: 67, 68, 69 its parts; they must be translated; also called A2 antibody fragment; A2 scFv antibody fragment
For B1, the phage binding ratio was 40%.
